pKd: −log10 of the molar value.
Biological target: HIV gp120 (HIV-1)
Assay: SPR

## Griffithsin (from UniProt P84801 1-121) (natural protein)
  pKd: 9.10
  koff: 0.00175 s⁻¹
  kon: 2.19e+06 M⁻¹ s⁻¹

From PMC4649164
